Patent US20050234221A1

Molecular target: IL-17 receptor like polypeptide on human B-lymphoblast cell line GM3104A (human) (UniProt Q9NRM6)
Assay: cell-based or functional assay

recombinant human IL-17E-Fc fusion protein, sequence (chain): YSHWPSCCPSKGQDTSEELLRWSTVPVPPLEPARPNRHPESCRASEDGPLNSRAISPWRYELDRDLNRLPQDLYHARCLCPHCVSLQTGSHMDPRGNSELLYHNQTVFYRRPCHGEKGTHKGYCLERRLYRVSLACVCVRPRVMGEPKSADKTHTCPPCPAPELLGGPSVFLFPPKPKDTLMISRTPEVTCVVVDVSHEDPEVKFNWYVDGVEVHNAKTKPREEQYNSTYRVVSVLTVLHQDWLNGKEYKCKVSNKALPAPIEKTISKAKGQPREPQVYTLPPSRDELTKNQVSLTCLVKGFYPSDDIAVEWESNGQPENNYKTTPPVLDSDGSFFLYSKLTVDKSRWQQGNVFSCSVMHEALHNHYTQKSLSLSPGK

IL-1α (pg/ml) released by GM3104A cells: 25 pg/mL
IL-6 (pg/ml) released by GM3104A cells: 362 pg/mL
TNF-α (pg/ml) released by GM3104A cells: 460 pg/mL
Substance: recombinant human IL-17E-Fc fusion protein
